According to US10208121B2, “Anti-Axl antagonistic antibodies” (BERGEN TEKNOLOGIOVERFORING AS, priority 2014, dated 2019):
Values belong to the molecule of their own block, whether it stands above or below them.

Columns and labels:
[1] = biological target: T1, human Tyro3 (rhTyro3/Dtk-Fc chimera) (Homo sapiens, UniProt Q06418); assay: Biacore binding analysis on immobilized human Tyro3; settings: 10 μg/mL, 25° C.
T1 construct: Soluble recombinant antigens corresponding to the extracellular domains of members of the human TAM receptor family; purchased R&D Systems 859-DK
T1 sequence (Q06418 41-429 limits assumed): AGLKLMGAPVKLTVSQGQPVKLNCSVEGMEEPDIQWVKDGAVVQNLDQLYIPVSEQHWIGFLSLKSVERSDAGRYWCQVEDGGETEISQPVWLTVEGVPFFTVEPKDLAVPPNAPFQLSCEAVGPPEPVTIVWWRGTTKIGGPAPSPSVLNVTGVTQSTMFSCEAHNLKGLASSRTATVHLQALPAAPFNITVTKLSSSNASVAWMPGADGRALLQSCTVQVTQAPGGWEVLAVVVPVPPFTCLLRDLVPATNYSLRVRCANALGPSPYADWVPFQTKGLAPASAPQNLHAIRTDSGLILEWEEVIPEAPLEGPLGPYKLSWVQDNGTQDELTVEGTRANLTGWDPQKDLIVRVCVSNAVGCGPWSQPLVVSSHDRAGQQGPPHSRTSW
Experimental: (§1) All binding experiments were performed using Biacore 3000 instrument (GE Healthcare) at 25° C. Soluble recombinant antigens corresponding to the extracellular domains of members of the human TAM receptor family, Axl (rhAxl-Fc chimera; R&D Systems, Cat. no. 154-AL), Mer (rhMer-Fc chimera; R&D Systems, Cat. no. 891-MR) and Tyro3 (rhTyro3/Dtk-Fc chimera; R&D Systems, Cat. no. 859-DK) were immobilized on the surface of CM5 sensor chip using amine coupling at the surface density of 393.0, 303.6 and 364.0 resonance units (RU), respectively. The Biacore run was performed in an automatic mode using Binding analysis wizard. Samples containing either MAb 10C9 or MAb 10G5 at concentration 10 μg/mL in HBS-EP buffer (GE Healthcare) were injected over the surfaces with immobilized antigens at flow rate of 30 μL/min for 3 min (association) followed by 5 min dissociation.
(§2) The binding experiments were performed using Biacore 3000 instrument (GE Healthcare) at 25° C. The soluble recombinant antigens corresponding to human Axl (rhAxl-Fc chimera; R&D Systems, Cat. no. 154-AL), mouse Axl (rmAxl-Fc chimera; R&D Systems, R&D Systems; Cat. no. 854-AX) and human Tyro3 (rhTyro3/Dtk-Fc chimera; R&D Systems, Cat. no. 859-DK) were immobilized on the surface of CM5 sensor chip using amine coupling at the surface density of 1,308.0, 2,115.9 and 1,429.0 RU, respectively. The Biacore runs were performed in an automatic mode using Binding analysis wizard.
(§3) The sample containing either MAb 10C9, MAb 10G5 or recombinant mouse (rm) Axl-ligand Gas6 (R&D Systems, Cat. no. 986-GS/CF) at concentration 10 μg/mL in HBS-EP buffer (GE Healthcare) was injected over the surfaces with immobilized antigens at flow rate of 30 μL/min for 3 min (association) followed by 5 min dissociation.

[2] = biological target: T2, human Axl (rhAxl-Fc chimera) (Homo sapiens, UniProt P30530); assay: Biacore binding analysis on immobilized human Axl; settings: 10 μg/mL, 25° C.
T2 construct: Soluble recombinant antigens corresponding to the extracellular domains of members of the human TAM receptor family; purchased R&D Systems 154-AL
Experimental: as §1, §2, §3
The sequence of Axl receptor from cynomolgus monkey (Macaca fascicularis; SEQ ID NO.43) was retrieved from WO2009062690A1. Based on the sequence, recombinant extracellular domain of cyno-Axl was generated by transient expression in CHO cells as a fusion protein with human Fc. The recombinant cyno-Axl-Fc was purified to homogeneity using Protein A-Sepharose (GE Healthcare). The binding experiments were performed using Biacore 3000 instrument (GE Healthcare) at 25° C. The soluble recombinant antigens corresponding to human Axl (rhAxl-Fc chimera; R&D Systems, Cat. no. 154-AL) and cyno-Axl were immobilized on the surface of CM5 sensor chip using amine coupling at the surface density of 775 and 880 RU, respectively. The Biacore runs were performed in an automatic mode using Binding analysis wizard.
The sample containing either MAb 10C9, MAb 10G5 or human Axl-specific MAb 5F11 (control) at concentration 10 μg/mL in HBS-EP buffer (GE Healthcare) was injected over the surfaces with immobilized antigens at flow rate of 30 μL/min for 3 min (association) followed by 5 min dissociation.
In addition, the Axl-binding properties of the chimeric antibodies c10C9 and c10G5 were tested using Biacore 3000 instrument (GE Healthcare) and a sensor chip CM5 coated with human Axl (rhAxl-Fc chimera; R&D Systems, Cat. no. 154-AL) at the surface density of 1,308.0 RU. The Biacore runs were performed in an automatic mode using Binding analysis wizard. The samples comprising either the chimeric antibodies c10C9 and c10G5 or their murine counterparts at concentration 10 μg/mL in HBS-EP buffer (GE Healthcare) were injected over the surfaces with immobilized antigens at flow rate of 30 μL/min for 3 min (association) followed by 5 min dissociation.

[3] = biological target: T3, mouse Axl (rmAxl-Fc chimera) (Mus musculus, UniProt Q00993); assay: Biacore binding analysis on immobilized mouse Axl; settings: 10 μg/mL, 25° C.
T3 construct: The soluble recombinant antigens corresponding to human Axl (rhAxl-Fc chimera; R&D Systems, Cat. no; 154-AL), mouse Axl (rmAxl-Fc chimera; purchased R&D Systems 854-AX
T3 sequence (Q00993 19-445 limits assumed, change not shown): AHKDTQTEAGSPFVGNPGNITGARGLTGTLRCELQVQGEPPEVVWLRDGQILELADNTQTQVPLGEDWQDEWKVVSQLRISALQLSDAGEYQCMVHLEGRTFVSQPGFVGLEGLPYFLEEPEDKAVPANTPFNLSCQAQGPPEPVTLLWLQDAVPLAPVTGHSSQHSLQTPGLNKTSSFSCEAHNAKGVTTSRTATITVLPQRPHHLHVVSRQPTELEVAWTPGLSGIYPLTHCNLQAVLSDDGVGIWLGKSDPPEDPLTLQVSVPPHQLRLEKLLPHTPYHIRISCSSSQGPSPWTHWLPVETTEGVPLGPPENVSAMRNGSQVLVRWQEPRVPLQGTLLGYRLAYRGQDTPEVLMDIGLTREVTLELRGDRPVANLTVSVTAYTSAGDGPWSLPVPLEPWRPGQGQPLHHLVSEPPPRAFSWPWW
Experimental: as §2, §3

[4] = biological target: T4, rhAxl-Fc chimera (recombinant human Axl) (Homo sapiens, UniProt P30530); assay: Biacore surface plasmon resonance kinetic affinity determination on immobilized rhAxl-Fc; type: binding; settings: chimeric antibodies, rhAxl immobilized on sensor chip, 25° C., 1:1 Langmuir binding model
T4 construct: Soluble recombinant antigens corresponding to the extracellular domains of members of the human TAM receptor family; purchased R&D Systems 154-AL
Experimental: (§4) Kinetic analysis of MAbs 10C9 and 10G5 interacting with rhAxl immobilized on the surface of the Biacore sensor chip. Overlay plots of sensograms for different antibody concentrations (1.3-666.7 nM for 10C9 and 0.3-166.7 nM for 10G5) are shown. The precise kinetic analysis was performed using BIA evaluation software and curve fitting according to 1:1 Langmuir binding model.
as §4, with “chimeric antibodies c10C9” for “MAbs 10C9”, “c10G5” for “10G5”, “c10C9” for “10C9”, “c10G5)” for “10G5)”
(§5) Affinity determination of anti-Axl antibodies 10C9 and 10G5 was performed at 25° C. by surface plasmon resonance measurements using Biacore 3000 instrument (GE Healthcare). As a solid antigen-coated surface, a sensor chip CM5 with immobilized rhAxl-Fc chimera (R&D Systems, Cat. no. 154-AL) at density 190 RU was used.
(§6) For the kinetics measurements, different concentrations of anti-Axl antibodies (from 0.3 to 666.7 nM) in HBS-EP buffer (Biacore, Cat. no. BR-1001-88) were injected at flow rate of 30 μL/min with 3 min injection time followed by 5 min dissociation (buffer alone). After each cycle, the surface was regenerated by 30 sec injection of a regeneration solution (10 mM HCl, 1 M NaCl) at flow rate 50 μL/min.
The kinetic association (on-rate, kon) and dissociation (off-rate, koff) rates were calculated using BIAevaluation software and 1:1 Langmuir binding model. The equilibrium dissociation constant (KD) was calculated as the koff/kon ratio. The half-life (t1/2) of the formed antibody-antigen complexes was calculated as the ln 2/koff ratio.
as §5, with “of the chimeric” for “of”, “c10C9” for “10C9”, “c10G5” for “10G5”
as §6, with “333.3” for “666.7”

[5] = tested on: Axl-positive breast cancer cell line MDA-MB-231; assay: Flow cytometry binding to Axl-positive MDA-MB-231 cells; type: cell-based, human; settings: different antibody concentrations, MFI
Experimental: Different concentrations of mouse and chimeric antibodies were tested in flow cytometry for binding to triple-negative breast cancer cell line MDA-MB-231. The bound mouse and chimeric antibodies were detected with APC-conjugated donkey F(ab′)2 fragments specific for either mouse IgG (H+L), 1:500 dilution, or human IgG (H+L), 1:300 dilution, respectively (both from Jackson ImmunoResearch). The cell staining was measured using Accuri C6 flow cytometer (BD Biosciences). MFI, geometric mean fluorescence intensity.
The purified chimeric antibodies (>95% purity) were analysed for binding to Axl-positive breast cancer cell line MDA-MB-231 in flow cytometry. For comparison, the parental mouse MAbs 10C9 and 10G5 were used. For flow cytometry, the adherent cells in culture were washed with PBS, detached by treatment with trypsin (0.25%) for 1 min and hitting culture dish for full detachment. Trypsin was quenched by adding into the tissue flask the complete medium followed by washing the cells with PBS. During the washing steps, the cells were collected by centrifugation at 200 g for 5 min. The antibody was diluted for total concentration in PBS containing 0.02% bovine serum albumin (BSA). Cell staining was performed using 200 μL of cell suspension comprising 10^5 cells for 20 min at room temperature. The cell-bound antibodies were detected with APC-conjugated donkey anti-human or anti-mouse, respectively, IgG (H+L) F(ab′)2 fragments (Jackson ImmunoResearch). After two washing steps with PBS/0.02% BSA, the cells were resuspended in 200 μL and kept on ice before analysis on Accuri C6 flow cytometer (BD Biosciences).

- binding to human Tyro3 [1]: somewhat weaker binding
- binding to human Tyro3 ([1]; listed as murine Gas 6): more weakly
- binding to human Axl [2]: strong binding
- binding to human Axl ([2]; listed as murine Gas 6): binds strongly
- binding to mouse Axl [3]: strong binding
- binding to mouse Axl ([3]; listed as murine Gas 6): binds strongly
B1: mouse Gas6: recombinant mouse (rm) Axl-ligand Gas6 (R&D Systems), used as a control (protein)
chain: DQCTPNPCDKKGTHICQDLMGNFFCVCTDGWGGRLCDKDVNECVQKNGGCSQVCHNKPGSFQCACHSGFSLASDGQTCQDIDECTDSDTCGDARCKNLPGSYSCLCDEGYTYSSKEKTCQDVDECQQDRCEQTCVNSPGSYTCHCDGRGGLKLSPDMDTCEDILPCVPFSMAKSVKSLYLGRMFSGTPVIRLRFKRLQPTRLLAEFDFRTFDPEGVLFFAGGRSDSTWIVLGLRAGRLELQLRYNGVGRITSSGPTINHGMWQTISVEELERNLVIKVNKDAVMKIAVAGELFQLERGLYHLNLTVGGIPFKESELVQPINPRLDGCMRSWNWLNGEDSAIQETVKANTKMQCFSVTERGSFFPGNGFATYRLNYTRTSLDVGTETTWEVKVVARIRPATDTGVLLALVGDDDVVPISVALVDYHSTKKLKKQLVVLAVEDVALALMEIKVCDSQEHTVTVSLREGEATLEVDGTKGQSEVSTAQLQERLDTLKTHLQGSVHTYVGGLPEVSVISAPVTAFYRGCMTLEVNGKILDLDTASYKHSDITSHSCPPVEHAT

- Off-rate (koff; s^−1) [4]: 0.000219 s⁻¹
- On-rate (kon; M^−1s^−1) [4]: 2.16e+06 M⁻¹ s⁻¹
B2: c10C9: chimeric (mouse variable/human constant) IgG1 counterpart of antibody 10C9 (antibody)
heavy: QVQLQQPGPELVKPGASVKISCKTSDYNFTRYYIHWVKQRPGQGLEWIGWIYPGTGDSKYNEKFKGRATLTADTSSSTAYMQLSSQTSEDSAVYFCARNGNYWYFDVWGAGTAVTVSS
light: DIVMTQAAPSGPVTPGESVSISCRSSKSLLHSNGNTYLYWFLQRPGQSPQLLIYRMSNLASGVPDRFSGSGSGTAFTLRISRVEAEDVGIYYCMQHREYPFTFGGGTKLEIK
modifications: left off: a dimerising Fc or GST
notes: chimeric (mouse variable/human constant) IgG1 counterpart of antibody 10C9
- binding to human Axl [2]: bind immobilized Axl with profiles very similar to the binding profiles of the corresponding mouse antibodies
- binding to MDA-MB-231 cells in flow cytometry [5]: Dose-dependent binding
